Biological target: T1, PDZD2_2, O15018
T1 sequence (O15018 329-429, limits assumed, looked up): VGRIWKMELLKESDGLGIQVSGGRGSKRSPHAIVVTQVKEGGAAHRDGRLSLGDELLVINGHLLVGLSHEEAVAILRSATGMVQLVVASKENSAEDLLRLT
Assay: holdup assay
Parameters: key: below the threshold = too weak to quantify, mostly under pKd 3.1 to 4
Conditions: plain residues with an end cap or a label only (N-terminal biotin on a linker: ado-ado)

Binder	pKd
MLSKQSESAI [FLVCR1, Q9Y5Y0]	4.46
TASPAKETSF [SLC2A7, Q6PXP3]	below the threshold
SAAKVLTSMC [GHRHR, Q02643]	4.75

Biological target: IL16_3, Q14005
Sequence (Q14005 1107-1207): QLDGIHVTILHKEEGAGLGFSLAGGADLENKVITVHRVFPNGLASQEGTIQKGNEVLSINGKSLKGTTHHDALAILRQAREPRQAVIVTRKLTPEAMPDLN
Assay: holdup assay
Parameters: key: below the threshold = too weak to quantify, mostly under pKd 3.1 to 4
Conditions: plain residues with an end cap or a label only (N-terminal biotin on a linker: ado-ado)

Binder	pKd
MLSKQSESAI [FLVCR1, Q9Y5Y0]	below the threshold
TASPAKETSF [SLC2A7, Q6PXP3]	below the threshold
SAAKVLTSMC [GHRHR, Q02643]	below the threshold

Biological target: T2, PCLO, Q9Y6V0
T2 sequence (Q9Y6V0 4491-4600, limits assumed, looked up): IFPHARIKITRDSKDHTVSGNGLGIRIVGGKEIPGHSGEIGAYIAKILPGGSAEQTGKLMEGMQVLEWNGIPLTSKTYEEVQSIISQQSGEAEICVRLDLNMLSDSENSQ
Assay: holdup assay
Parameters: key: below the threshold = too weak to quantify, mostly under pKd 3.1 to 4
Conditions: plain residues with an end cap or a label only (N-terminal biotin on a linker: ado-ado)

Binder	pKd
MLSKQSESAI [FLVCR1, Q9Y5Y0]	below the threshold
TASPAKETSF [SLC2A7, Q6PXP3]	below the threshold
SAAKVLTSMC [GHRHR, Q02643]	below the threshold

Biological target: GRID2IP_2, A4D2P6
Sequence (A4D2P6 272-370): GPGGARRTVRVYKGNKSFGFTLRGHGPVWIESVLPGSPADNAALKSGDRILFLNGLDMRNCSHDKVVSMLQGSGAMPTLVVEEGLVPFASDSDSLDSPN
Assay: holdup assay
Parameters: key: below the threshold = too weak to quantify, mostly under pKd 3.1 to 4
Conditions: plain residues with an end cap or a label only (N-terminal biotin on a linker: ado-ado)

Binder	pKd
MLSKQSESAI [FLVCR1, Q9Y5Y0]	below the threshold
TASPAKETSF [SLC2A7, Q6PXP3]	below the threshold
SAAKVLTSMC [GHRHR, Q02643]	4.38

Biological target: T3, DFNB31_2, Q9P202
T3 sequence (Q9P202 274-371, limits assumed, looked up): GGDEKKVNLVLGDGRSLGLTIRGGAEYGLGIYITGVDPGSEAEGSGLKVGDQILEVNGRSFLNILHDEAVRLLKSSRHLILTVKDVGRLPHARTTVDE
Assay: holdup assay
Parameters: key: below the threshold = too weak to quantify, mostly under pKd 3.1 to 4
Conditions: plain residues with an end cap or a label only (N-terminal biotin on a linker: ado-ado)

Binder	pKd
MLSKQSESAI [FLVCR1, Q9Y5Y0]	below the threshold
TASPAKETSF [SLC2A7, Q6PXP3]	below the threshold
SAAKVLTSMC [GHRHR, Q02643]	below the threshold

Biological target: T4, SIPA1L2, Q9P2F8
T4 sequence (Q9P2F8 945-1036, limits assumed, looked up): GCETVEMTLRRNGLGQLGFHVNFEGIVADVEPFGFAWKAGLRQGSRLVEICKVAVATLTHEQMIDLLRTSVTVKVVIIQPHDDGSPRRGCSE
Assay: holdup assay
Parameters: key: below the threshold = too weak to quantify, mostly under pKd 3.1 to 4
Conditions: plain residues with an end cap or a label only (N-terminal biotin on a linker: ado-ado)

Binder	pKd
MLSKQSESAI [FLVCR1, Q9Y5Y0]	below the threshold
TASPAKETSF [SLC2A7, Q6PXP3]	below the threshold
SAAKVLTSMC [GHRHR, Q02643]	below the threshold

Biological target: MAGI2_2, Q86UL8
Sequence (Q86UL8 410-522): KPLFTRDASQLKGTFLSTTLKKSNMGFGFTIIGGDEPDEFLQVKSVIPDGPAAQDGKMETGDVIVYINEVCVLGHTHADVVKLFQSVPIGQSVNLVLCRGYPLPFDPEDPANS
Assay: holdup assay
Parameters: key: below the threshold = too weak to quantify, mostly under pKd 3.1 to 4
Conditions: plain residues with an end cap or a label only (N-terminal biotin on a linker: ado-ado)

Binder	pKd
MLSKQSESAI [FLVCR1, Q9Y5Y0]	3.8
TASPAKETSF [SLC2A7, Q6PXP3]	below the threshold
SAAKVLTSMC [GHRHR, Q02643]	below the threshold

Biological target: T5, SNTA1, Q13424
T5 sequence (Q13424 82-180, limits assumed, looked up): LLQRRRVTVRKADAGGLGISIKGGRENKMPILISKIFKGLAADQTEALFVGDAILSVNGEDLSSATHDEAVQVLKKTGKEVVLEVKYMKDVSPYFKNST
Assay: holdup assay
Parameters: key: below the threshold = too weak to quantify, mostly under pKd 3.1 to 4
Conditions: plain residues with an end cap or a label only (N-terminal biotin on a linker: ado-ado)

Binder	pKd
MLSKQSESAI [FLVCR1, Q9Y5Y0]	3.73
TASPAKETSF [SLC2A7, Q6PXP3]	3.57
SAAKVLTSMC [GHRHR, Q02643]	below the threshold

Biological target: T6, CARD11, Q9BXL7
T6 sequence (Q9BXL7 662-765, limits assumed, looked up): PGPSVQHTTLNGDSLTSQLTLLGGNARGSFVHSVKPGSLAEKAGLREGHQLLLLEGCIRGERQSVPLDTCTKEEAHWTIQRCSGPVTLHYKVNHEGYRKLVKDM
Assay: holdup assay
Parameters: key: below the threshold = too weak to quantify, mostly under pKd 3.1 to 4
Conditions: plain residues with an end cap or a label only (N-terminal biotin on a linker: ado-ado)

Binder	pKd
MLSKQSESAI [FLVCR1, Q9Y5Y0]	below the threshold
TASPAKETSF [SLC2A7, Q6PXP3]	below the threshold
SAAKVLTSMC [GHRHR, Q02643]	below the threshold

Biological target: T7, LIN7A, O14910
T7 sequence (O14910 103-200, limits assumed, looked up): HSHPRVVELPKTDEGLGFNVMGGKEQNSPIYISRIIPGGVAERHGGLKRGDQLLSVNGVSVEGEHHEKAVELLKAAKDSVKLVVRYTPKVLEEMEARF
Assay: holdup assay
Parameters: key: below the threshold = too weak to quantify, mostly under pKd 3.1 to 4
Conditions: plain residues with an end cap or a label only (N-terminal biotin on a linker: ado-ado)

Binder	pKd
MLSKQSESAI [FLVCR1, Q9Y5Y0]	below the threshold
TASPAKETSF [SLC2A7, Q6PXP3]	3.77
SAAKVLTSMC [GHRHR, Q02643]	below the threshold

Biological target: GRIP2_6, Q9C0E4
Sequence (Q9C0E4 648-740): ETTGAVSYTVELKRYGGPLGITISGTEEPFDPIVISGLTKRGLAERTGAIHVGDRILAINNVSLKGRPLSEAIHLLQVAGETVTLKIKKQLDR
Assay: holdup assay
Parameters: key: below the threshold = too weak to quantify, mostly under pKd 3.1 to 4
Conditions: plain residues with an end cap or a label only (N-terminal biotin on a linker: ado-ado)

Binder	pKd
MLSKQSESAI [FLVCR1, Q9Y5Y0]	below the threshold
TASPAKETSF [SLC2A7, Q6PXP3]	below the threshold
SAAKVLTSMC [GHRHR, Q02643]	below the threshold

Biological target: GRIP2_5, Q9C0E4
Sequence (Q9C0E4 544-642): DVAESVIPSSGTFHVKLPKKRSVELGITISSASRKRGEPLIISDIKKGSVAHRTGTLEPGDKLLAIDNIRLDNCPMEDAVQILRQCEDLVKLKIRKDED
Assay: holdup assay
Parameters: key: below the threshold = too weak to quantify, mostly under pKd 3.1 to 4
Conditions: plain residues with an end cap or a label only (N-terminal biotin on a linker: ado-ado)

Binder	pKd
MLSKQSESAI [FLVCR1, Q9Y5Y0]	below the threshold
TASPAKETSF [SLC2A7, Q6PXP3]	below the threshold
SAAKVLTSMC [GHRHR, Q02643]	below the threshold

Biological target: DLG2_3, Q15700
Assay: holdup assay
Parameters: key: below the threshold = too weak to quantify, mostly under pKd 3.1 to 4
Conditions: plain residues with an end cap or a label only (N-terminal biotin on a linker: ado-ado)

Binder	pKd
MLSKQSESAI [FLVCR1, Q9Y5Y0]	below the threshold
TASPAKETSF [SLC2A7, Q6PXP3]	3.88
SAAKVLTSMC [GHRHR, Q02643]	3.8

Biological target: GRASP, Q7Z6J2
Sequence (Q7Z6J2 96-193): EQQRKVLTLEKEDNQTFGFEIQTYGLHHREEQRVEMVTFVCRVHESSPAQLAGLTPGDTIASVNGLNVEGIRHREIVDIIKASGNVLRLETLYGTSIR
Assay: holdup assay
Parameters: key: below the threshold = too weak to quantify, mostly under pKd 3.1 to 4
Conditions: plain residues with an end cap or a label only (N-terminal biotin on a linker: ado-ado)

Binder	pKd
MLSKQSESAI [FLVCR1, Q9Y5Y0]	below the threshold
TASPAKETSF [SLC2A7, Q6PXP3]	below the threshold
SAAKVLTSMC [GHRHR, Q02643]	4.32

Biological target: DLG1_2, Q12959
Assay: holdup assay
Parameters: key: below the threshold = too weak to quantify, mostly under pKd 3.1 to 4
Conditions: plain residues with an end cap or a label only (N-terminal biotin on a linker: ado-ado)

Binder	pKd
MLSKQSESAI [FLVCR1, Q9Y5Y0]	3.82
TASPAKETSF [SLC2A7, Q6PXP3]	4.5
SAAKVLTSMC [GHRHR, Q02643]	below the threshold

Biological target: T8, NHERF3_1, Q5T2W1
T8 sequence (Q5T2W1 4-100, limits assumed, looked up): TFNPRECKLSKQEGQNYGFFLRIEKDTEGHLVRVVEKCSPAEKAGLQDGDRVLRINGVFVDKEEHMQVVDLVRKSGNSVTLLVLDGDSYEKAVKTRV
Assay: holdup assay
Parameters: key: below the threshold = too weak to quantify, mostly under pKd 3.1 to 4
Conditions: plain residues with an end cap or a label only (N-terminal biotin on a linker: ado-ado)

Binder	pKd
MLSKQSESAI [FLVCR1, Q9Y5Y0]	3.81
TASPAKETSF [SLC2A7, Q6PXP3]	4.95
SAAKVLTSMC [GHRHR, Q02643]	3.94

Biological target: GIPC2, Q8TF65
Sequence (Q8TF65 112-203): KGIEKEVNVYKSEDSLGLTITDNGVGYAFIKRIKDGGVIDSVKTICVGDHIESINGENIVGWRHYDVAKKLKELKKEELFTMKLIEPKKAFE
Assay: holdup assay
Parameters: key: below the threshold = too weak to quantify, mostly under pKd 3.1 to 4
Conditions: plain residues with an end cap or a label only (N-terminal biotin on a linker: ado-ado)

Binder	pKd
MLSKQSESAI [FLVCR1, Q9Y5Y0]	3.74
TASPAKETSF [SLC2A7, Q6PXP3]	below the threshold
SAAKVLTSMC [GHRHR, Q02643]	below the threshold

Biological target: FRMPD2_2, Q68DX3
Sequence (Q68DX3 944-1038): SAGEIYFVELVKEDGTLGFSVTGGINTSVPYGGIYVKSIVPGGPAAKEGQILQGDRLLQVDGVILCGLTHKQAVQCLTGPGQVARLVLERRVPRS
Assay: holdup assay
Parameters: key: below the threshold = too weak to quantify, mostly under pKd 3.1 to 4
Conditions: plain residues with an end cap or a label only (N-terminal biotin on a linker: ado-ado)

Binder	pKd
MLSKQSESAI [FLVCR1, Q9Y5Y0]	below the threshold
TASPAKETSF [SLC2A7, Q6PXP3]	below the threshold
SAAKVLTSMC [GHRHR, Q02643]	below the threshold

Biological target: T9, MPP6, Q9NZW5
T9 sequence (Q9NZW5 125-219, limits assumed, looked up): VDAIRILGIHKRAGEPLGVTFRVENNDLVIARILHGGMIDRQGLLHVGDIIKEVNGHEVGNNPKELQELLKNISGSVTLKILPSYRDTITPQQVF
Assay: holdup assay
Parameters: key: below the threshold = too weak to quantify, mostly under pKd 3.1 to 4
Conditions: plain residues with an end cap or a label only (N-terminal biotin on a linker: ado-ado)

Binder	pKd
MLSKQSESAI [FLVCR1, Q9Y5Y0]	below the threshold
TASPAKETSF [SLC2A7, Q6PXP3]	below the threshold
SAAKVLTSMC [GHRHR, Q02643]	below the threshold

Biological target: DLG1_1, Q12959
Assay: holdup assay
Parameters: key: below the threshold = too weak to quantify, mostly under pKd 3.1 to 4
Conditions: plain residues with an end cap or a label only (N-terminal biotin on a linker: ado-ado)

Binder	pKd
MLSKQSESAI [FLVCR1, Q9Y5Y0]	below the threshold
TASPAKETSF [SLC2A7, Q6PXP3]	below the threshold
SAAKVLTSMC [GHRHR, Q02643]	below the threshold

Biological target: T10, NHERF3_4, Q5T2W1
T10 sequence (Q5T2W1 373-468, limits assumed, looked up): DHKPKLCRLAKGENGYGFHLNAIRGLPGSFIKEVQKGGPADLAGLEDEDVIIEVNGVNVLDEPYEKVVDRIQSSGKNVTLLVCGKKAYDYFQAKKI
Assay: holdup assay
Parameters: key: below the threshold = too weak to quantify, mostly under pKd 3.1 to 4
Conditions: plain residues with an end cap or a label only (N-terminal biotin on a linker: ado-ado)

Binder	pKd
MLSKQSESAI [FLVCR1, Q9Y5Y0]	below the threshold
TASPAKETSF [SLC2A7, Q6PXP3]	below the threshold
SAAKVLTSMC [GHRHR, Q02643]	4

Biological target: T11, DFNB31_3, Q9P202
T11 sequence (Q9P202 811-907, limits assumed, looked up): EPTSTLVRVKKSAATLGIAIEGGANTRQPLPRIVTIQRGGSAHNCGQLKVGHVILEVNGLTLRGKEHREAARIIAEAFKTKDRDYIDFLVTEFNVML
Assay: holdup assay
Parameters: key: below the threshold = too weak to quantify, mostly under pKd 3.1 to 4
Conditions: plain residues with an end cap or a label only (N-terminal biotin on a linker: ado-ado)

Binder	pKd
MLSKQSESAI [FLVCR1, Q9Y5Y0]	below the threshold
TASPAKETSF [SLC2A7, Q6PXP3]	3.88
SAAKVLTSMC [GHRHR, Q02643]	4.09

Biological target: NHERF2_2, Q15599
Sequence (Q15599 142-238): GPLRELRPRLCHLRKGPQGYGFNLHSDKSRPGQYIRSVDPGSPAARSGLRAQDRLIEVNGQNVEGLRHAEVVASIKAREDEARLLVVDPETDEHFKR
Assay: holdup assay
Parameters: key: below the threshold = too weak to quantify, mostly under pKd 3.1 to 4
Conditions: plain residues with an end cap or a label only (N-terminal biotin on a linker: ado-ado)

Binder	pKd
MLSKQSESAI [FLVCR1, Q9Y5Y0]	below the threshold
TASPAKETSF [SLC2A7, Q6PXP3]	4.66
SAAKVLTSMC [GHRHR, Q02643]	below the threshold

Biological target: MAST1, Q9Y2H9
Sequence (Q9Y2H9 962-1065): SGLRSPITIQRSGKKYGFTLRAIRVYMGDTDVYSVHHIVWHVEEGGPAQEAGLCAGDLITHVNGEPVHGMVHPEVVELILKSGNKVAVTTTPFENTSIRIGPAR
Assay: holdup assay
Parameters: key: below the threshold = too weak to quantify, mostly under pKd 3.1 to 4
Conditions: plain residues with an end cap or a label only (N-terminal biotin on a linker: ado-ado)

Binder	pKd
MLSKQSESAI [FLVCR1, Q9Y5Y0]	4.18
TASPAKETSF [SLC2A7, Q6PXP3]	4.55
SAAKVLTSMC [GHRHR, Q02643]	below the threshold

Biological target: FRMPD2_3, Q68DX3
Sequence (Q68DX3 1073-1166): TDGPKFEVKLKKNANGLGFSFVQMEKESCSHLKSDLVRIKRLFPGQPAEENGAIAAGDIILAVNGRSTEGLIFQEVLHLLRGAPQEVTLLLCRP
Assay: holdup assay
Parameters: key: below the threshold = too weak to quantify, mostly under pKd 3.1 to 4
Conditions: plain residues with an end cap or a label only (N-terminal biotin on a linker: ado-ado)

Binder	pKd
MLSKQSESAI [FLVCR1, Q9Y5Y0]	below the threshold
TASPAKETSF [SLC2A7, Q6PXP3]	below the threshold
SAAKVLTSMC [GHRHR, Q02643]	below the threshold

Biological target: T12, MPDZ_5, O75970
T12 sequence (O75970 695-796, limits assumed, looked up): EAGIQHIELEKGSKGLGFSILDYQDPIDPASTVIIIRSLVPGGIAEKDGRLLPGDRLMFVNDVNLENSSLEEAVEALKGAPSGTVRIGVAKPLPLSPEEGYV
Assay: holdup assay
Parameters: key: below the threshold = too weak to quantify, mostly under pKd 3.1 to 4
Conditions: plain residues with an end cap or a label only (N-terminal biotin on a linker: ado-ado)

Binder	pKd
MLSKQSESAI [FLVCR1, Q9Y5Y0]	below the threshold
TASPAKETSF [SLC2A7, Q6PXP3]	below the threshold
SAAKVLTSMC [GHRHR, Q02643]	below the threshold

From paper PMC9482650, “Quantitative fragmentomics allow affinity mapping of interactomes” (Nature Communications, 2022)
